The text below walks through data of patent publication EP0574512B1.

For experiment [1], the target named is HIV-1 envelope gp120/gp41 complex (HIV-1). Nature of the experiment: cell-based or functional assay.
Experiment [2] addresses MHC class II antigen on the Raji B cell line. Nature of the experiment: cell-based or functional assay.

As to CD4:ζ chimeric receptor, in experiment [1], the mean effector to target ratio for 50% release (51Cr release cytolysis by CTL) (effector to target ratio) is 1.9. This substance also yielded a cytolysis (51Cr release) in experiment [2] of 5 % cytolysis.
